Source: PMC5764988

What follows are substances tested against MagD, the Type II alpha-2-macroglobulin from Pseudomonas aeruginosa (Pseudomonas aeruginosa) (UniProt Q9HVT2) (assay: AUC; sedimentation velocity, 35,000 rpm, 20 °C, absorbance at 280 nm; 0.25, 0.5 and 1 mg/mL; 25 mM HEPES pH 7.5, 100 mM NaCl; c(s) analysis with Sedfit; co-purified complexes after analytical gel filtration).
Work on MagB (natural protein) yielded a stoichiometry N of 1. MagF (natural protein) gave a stoichiometry N of 1. MagA (natural protein) gave a stoichiometry N of 1.
